Results reported in the supplement of paper PMC10724198.
± gives the standard deviation of the averaged measurements.

tested on: Saccharomyces cerevisiae; assay: protein stability index of tFT-peptide fusion (C-terminal peptide) (PSI (0-1 scale)); higher = more stable (slower turnover); conditions: genetic background: wild type; temperature: 30 C
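Note: PSI is a weighted mean of sequencing reads over stability bins, variants kept only with over 10 reads, mCherry proximal and sfGFP distal, peptide attached via GGGS linker.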

Sequence | protein stability index
NCVDRFKGQKRM | 0.505 ± 0.031
NFFIQFHNLLFP | 0.718 ± 0.0086
NGLVCVFILSWY | 0.375 ± 0.031
NLFVFLSYLFNV | 0.422 ± 0.022
NLVCLDPFLVFV | 0.581 ± 0.22
NMVSMVVVIFGV | 0.275 ± 0.015
NNQIQKKMYQTN | 0.35 ± 0.022
NWAIEIRSVKIV | 0.261 ± 0.025
NYCVFLSYLLFC | 0.301 ± 0.0096
NYFRPWLIFHKC | 0.38 ± 0.059
PALPQPMNPAPP | 0.725 ± 0.032
PALVVALLASVL | 0.485 ± 0.011
PCLPLTPMWTLF | 0.493 ± 0.0072
PFFVLFSLAFLF | 0.279 ± 0.07
PLATSLIGLFVV | 0.433 ± 0.039
PLLLFFFPRLLF | 0.475 ± 0.024
PLLPTPLTAPPP | 0.385 ± 0.0092
PLLSATLTRRLA | 0.475 ± 0.024
PLTSPLLFPVFA | 0.376 ± 0.015
PPPLPFPTPPPS | 0.433 ± 0.038
PPSLPPLISFSP | 0.729 ± 0.03
PPSRSPLPPLLH | 0.723 ± 0.027
PPTPYPRFIFSF | 0.459 ± 0.027
PPVPRLLPVLAP | 0.474 ± 0.0057
PRIVLFLRLHSN | 0.21 ± 0.0069
PRPETCHAVAVR | 0.4806 ± 0.0021

Sequence | protein stability index
PRPLLSIYLRHA | 0.405 ± 0.018
PRQPSKSNASNR | 0.582 ± 0.13
PSIALVRLDVIC | 0.392 ± 0.017
PSPFHSFYLRLI | 0.398 ± 0.033
PSPPPYAPPIPA | 0.488 ± 0.0057
PSSPTPPPSSSP | 0.353 ± 0.039
PSSVKLRVPSLY | 0.7075 ± 0.0025
PTPSRPPHPPLR | 0.704 ± 0.02
PVALYPVQAYLT | 0.2307 ± 0.0013
PVFVLFFFSSLV | 0.44 ± 0.012
PVLIFTWVIVCH | 0.162 ± 0.036
PVLPPPLLLCPC | 0.22801 ± 2.4e-05
PWEYSSQLVLVI | 0.281 ± 0.022
QCRLPRPPLSLP | 0.436 ± 0.022
QPTGYFKLIIIK | 0.3976 ± 0.0014
QPTPQSALAKHQ | 0.515 ± 0.04
RASLPSLFRSLL | 0.811 ± 0.073
RAVLRFVMVWVL | 0.317 ± 0.0068
RCTLFVNPVCVH | 0.349 ± 0.014
RGFIFFALWSFC | 0.384 ± 0.08
RGFVVFCIPCFV | 0.3392 ± 0.002
RGKVVRGLLFCA | 0.3 ± 0.12
RGPAYATCHLLC | 0.232 ± 0.028
RIAIRSAVICAS | 0.183 ± 0.028
RIIKIRAISINL | 0.501 ± 0.022
RILKLPGHVNDV | 0.7167 ± 0.005

Sequence | protein stability index
RIRLYWVLRRLG | 0.183 ± 0.0066
RISGSIVVRKRS | 0.554 ± 0.1
RLPRILVLVCLF | 0.237 ± 0.017
RLPSSNVRYWVS | 0.235 ± 0.035
RNDCAYHVLQIV | 0.228 ± 0.0084
RNTLLFKRILHI | 0.165 ± 0.059
RPPSLVFLFLLT | 0.441 ± 0.032
RRGGNIVWYCLV | 0.234 ± 0.017
RRIILAGLFLIS | 0.403 ± 0.0097
RRMGLRLFLLWM | 0.4517 ± 0.0011
RSAVECRVTNIR | 0.546 ± 0.08
RSFSKRSFMFLC | 0.263 ± 0.012
RSNLSKSWHRIG | 0.207 ± 0.038
RTMLSNRIKSFI | 0.415 ± 0.014
RVRRETRLRQIA | 0.27 ± 0.047
RVVNRWGVCFLG | 0.231 ± 0.0097
RVWTTVFIIRAT | 0.333 ± 0.062
RYLHFASLLFAS | 0.364 ± 0.014
SDVLVVWVFFCR | 0.405 ± 0.043
SELLVHVVFWLA | 0.247 ± 0.025
SFAVSSDYLFII | 0.401 ± 0.019
SFCSFVFVTFVL | 0.455 ± 0.033
SFFCFFLSFFYL | 0.502 ± 0.015
SFFSQAIPILAA | 0.225 ± 0.072
SFLCILIFPFFP | 0.469 ± 0.034
SFSFRPCLLLFF | 0.336 ± 0.099

tested on: Saccharomyces cerevisiae; assay: as above; conditions: genetic background: cdc34-1; temperature: 37 C
Protocol: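 MPS profiling in S. cerevisiae of the tFT-X12 degron library: putative degron peptides plus stable controls, 12 aa, fused to the C-terminus of a sfGFP-mCherry timer. Cells are FACS-sorted into 8 mCherry/sfGFP bins and deep-sequenced. PSI runs from 0 (unstable) to 1 (stable). Backgrounds are wild type, das1Δ and doa10Δ at 30 °C, and wild type, das1Δ, cdc34-1 and cdc53-1 at 37 °C; 2-3 technical replicates each.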

Sequence | protein stability index
NCVDRFKGQKRM | 0.655 ± 0.055
NFFIQFHNLLFP | 0.754 ± 0.017
NGLVCVFILSWY | 0.202 ± 0.022
NLFVFLSYLFNV | 0.603 ± 0.051
NLVCLDPFLVFV | 0.582 ± 0.027
NMVSMVVVIFGV | 0.248 ± 0.014
NNQIQKKMYQTN | 0.585 ± 0.022
NWAIEIRSVKIV | 0.642 ± 0.066
NYCVFLSYLLFC | 0.362 ± 0.044
NYFRPWLIFHKC | 0.684 ± 0.021
PALPQPMNPAPP | 0.656 ± 0.043
PALVVALLASVL | 0.584 ± 0.018
PCLPLTPMWTLF | 0.713 ± 0.034
PFFVLFSLAFLF | 0.375 ± 0.018
PLATSLIGLFVV | 0.663 ± 0.098
PLLLFFFPRLLF | 0.579 ± 0.046
PLLPTPLTAPPP | 0.6705 ± 0.0022
PLLSATLTRRLA | 0.622 ± 0.041
PLTSPLLFPVFA | 0.272 ± 0.044
PPPLPFPTPPPS | 0.689 ± 0.0093
PPSLPPLISFSP | 0.7 ± 0.039
PPSRSPLPPLLH | 0.657 ± 0.04
PPTPYPRFIFSF | 0.688 ± 0.048
PPVPRLLPVLAP | 0.525 ± 0.038
PRIVLFLRLHSN | 0.555 ± 0.082
PRPETCHAVAVR | 0.568 ± 0.012

Sequence | protein stability index
PRPLLSIYLRHA | 0.597 ± 0.036
PRQPSKSNASNR | 0.692 ± 0.044
PSIALVRLDVIC | 0.383 ± 0.0059
PSPFHSFYLRLI | 0.5716 ± 0.0014
PSPPPYAPPIPA | 0.549 ± 0.03
PSSPTPPPSSSP | 0.655 ± 0.021
PSSVKLRVPSLY | 0.672 ± 0.029
PTPSRPPHPPLR | 0.704 ± 0.049
PVALYPVQAYLT | 0.5565 ± 0.0049
PVFVLFFFSSLV | 0.421 ± 0.012
PVLIFTWVIVCH | 0.0357 ± 0.011
PVLPPPLLLCPC | 0.0283 ± 0.018
PWEYSSQLVLVI | 0.0478 ± 0.02
QCRLPRPPLSLP | 0.676 ± 0.017
QPTGYFKLIIIK | 0.317 ± 0.029
QPTPQSALAKHQ | 0.655 ± 0.018
RASLPSLFRSLL | 0.951 ± 0.014
RAVLRFVMVWVL | 0.499 ± 0.042
RCTLFVNPVCVH | 0.251 ± 0.018
RGFIFFALWSFC | 0.458 ± 0.0091
RGFVVFCIPCFV | 0.301 ± 0.042
RGKVVRGLLFCA | 0.619 ± 0.058
RGPAYATCHLLC | 0.599 ± 0.041
RIAIRSAVICAS | 0.306 ± 0.05
RIIKIRAISINL | 0.575 ± 0.062
RILKLPGHVNDV | 0.6842 ± 0.0067

Sequence | protein stability index
RIRLYWVLRRLG | 0.595 ± 0.008
RISGSIVVRKRS | 0.673 ± 0.032
RLPRILVLVCLF | 0.231 ± 0.0089
RLPSSNVRYWVS | 0.637 ± 0.037
RNDCAYHVLQIV | 0.607 ± 0.016
RNTLLFKRILHI | 0.671 ± 0.028
RPPSLVFLFLLT | 0.551 ± 0.062
RRGGNIVWYCLV | 0.588 ± 0.025
RRIILAGLFLIS | 0.586 ± 0.028
RRMGLRLFLLWM | 0.649 ± 0.045
RSAVECRVTNIR | 0.701 ± 0.031
RSFSKRSFMFLC | 0.621 ± 0.025
RSNLSKSWHRIG | 0.538 ± 0.065
RTMLSNRIKSFI | 0.6235 ± 0.0026
RVRRETRLRQIA | 0.597 ± 0.0087
RVVNRWGVCFLG | 0.6 ± 0.0065
RVWTTVFIIRAT | 0.595 ± 0.032
RYLHFASLLFAS | 0.658 ± 0.019
SDVLVVWVFFCR | 0.292 ± 0.0075
SELLVHVVFWLA | 0.268 ± 0.013
SFAVSSDYLFII | 0.69 ± 0.099
SFCSFVFVTFVL | 0.4 ± 0.031
SFFCFFLSFFYL | 0.571 ± 0.027
SFFSQAIPILAA | 0.0333 ± 0.0079
SFLCILIFPFFP | 0.497 ± 0.051
SFSFRPCLLLFF | 0.32771 ± 1.1e-05
